The target in assay [1] is T1, 5/6FAM-F13ExonS synthetic peptide (5/6FAM on the N-terminus).
T1 peptide: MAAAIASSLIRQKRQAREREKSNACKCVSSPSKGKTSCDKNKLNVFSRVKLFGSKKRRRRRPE
The experiment in a line: fluorescence polarisation. (Fluorescence polarisation rises when a labelled molecule tumbles more slowly, as on binding a larger partner.)

Assay [2] has as its target pdisplay-LRRC37B_ECTO (amino acids 28-905) (human, UniProt Q96QE4 28-905). The experiment in a line: cell-surface binding assay.
Assay [3] has as its target Nav1.6 (SCN8A), transfected cDNA (UniProt Q9UQD0 1-1980). The experiment in a line: cell-surface binding assay.
For assay [4], the target named is pdisplay-LRRC37B-LRR_ECTO (amino acids 468-841) (human, UniProt Q96QE4 468-841). The experiment in a line: cell-surface binding assay.

pdisplay-LRRC37B_ECTO (amino acids 28-905), sequence (Q96QE4 28-905): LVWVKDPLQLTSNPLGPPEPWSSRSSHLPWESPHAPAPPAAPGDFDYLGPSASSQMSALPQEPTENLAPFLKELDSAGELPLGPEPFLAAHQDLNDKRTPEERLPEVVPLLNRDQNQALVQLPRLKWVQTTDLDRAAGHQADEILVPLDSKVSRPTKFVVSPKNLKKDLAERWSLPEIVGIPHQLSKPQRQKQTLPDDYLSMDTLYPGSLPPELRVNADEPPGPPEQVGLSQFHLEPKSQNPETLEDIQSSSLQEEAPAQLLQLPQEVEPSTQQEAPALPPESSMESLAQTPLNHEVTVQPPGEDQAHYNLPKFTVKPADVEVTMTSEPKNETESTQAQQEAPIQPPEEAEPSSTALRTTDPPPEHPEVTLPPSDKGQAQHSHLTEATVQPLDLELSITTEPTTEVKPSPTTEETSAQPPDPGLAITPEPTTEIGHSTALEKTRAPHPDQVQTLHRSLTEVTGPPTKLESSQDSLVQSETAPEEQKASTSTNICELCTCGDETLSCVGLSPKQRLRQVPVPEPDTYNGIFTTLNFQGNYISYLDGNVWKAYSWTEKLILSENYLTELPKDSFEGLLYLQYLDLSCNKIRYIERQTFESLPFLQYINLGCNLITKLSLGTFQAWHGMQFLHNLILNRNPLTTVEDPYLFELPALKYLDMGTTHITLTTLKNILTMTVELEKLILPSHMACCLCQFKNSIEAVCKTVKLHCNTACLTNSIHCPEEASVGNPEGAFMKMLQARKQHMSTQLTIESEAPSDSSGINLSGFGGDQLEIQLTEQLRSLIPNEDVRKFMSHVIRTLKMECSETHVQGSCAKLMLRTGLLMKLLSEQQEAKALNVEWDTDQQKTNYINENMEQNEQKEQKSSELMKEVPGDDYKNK
Nav1.6 (SCN8A), transfected cDNA, sequence (Q9UQD0 whole entry, the tested form may be a part): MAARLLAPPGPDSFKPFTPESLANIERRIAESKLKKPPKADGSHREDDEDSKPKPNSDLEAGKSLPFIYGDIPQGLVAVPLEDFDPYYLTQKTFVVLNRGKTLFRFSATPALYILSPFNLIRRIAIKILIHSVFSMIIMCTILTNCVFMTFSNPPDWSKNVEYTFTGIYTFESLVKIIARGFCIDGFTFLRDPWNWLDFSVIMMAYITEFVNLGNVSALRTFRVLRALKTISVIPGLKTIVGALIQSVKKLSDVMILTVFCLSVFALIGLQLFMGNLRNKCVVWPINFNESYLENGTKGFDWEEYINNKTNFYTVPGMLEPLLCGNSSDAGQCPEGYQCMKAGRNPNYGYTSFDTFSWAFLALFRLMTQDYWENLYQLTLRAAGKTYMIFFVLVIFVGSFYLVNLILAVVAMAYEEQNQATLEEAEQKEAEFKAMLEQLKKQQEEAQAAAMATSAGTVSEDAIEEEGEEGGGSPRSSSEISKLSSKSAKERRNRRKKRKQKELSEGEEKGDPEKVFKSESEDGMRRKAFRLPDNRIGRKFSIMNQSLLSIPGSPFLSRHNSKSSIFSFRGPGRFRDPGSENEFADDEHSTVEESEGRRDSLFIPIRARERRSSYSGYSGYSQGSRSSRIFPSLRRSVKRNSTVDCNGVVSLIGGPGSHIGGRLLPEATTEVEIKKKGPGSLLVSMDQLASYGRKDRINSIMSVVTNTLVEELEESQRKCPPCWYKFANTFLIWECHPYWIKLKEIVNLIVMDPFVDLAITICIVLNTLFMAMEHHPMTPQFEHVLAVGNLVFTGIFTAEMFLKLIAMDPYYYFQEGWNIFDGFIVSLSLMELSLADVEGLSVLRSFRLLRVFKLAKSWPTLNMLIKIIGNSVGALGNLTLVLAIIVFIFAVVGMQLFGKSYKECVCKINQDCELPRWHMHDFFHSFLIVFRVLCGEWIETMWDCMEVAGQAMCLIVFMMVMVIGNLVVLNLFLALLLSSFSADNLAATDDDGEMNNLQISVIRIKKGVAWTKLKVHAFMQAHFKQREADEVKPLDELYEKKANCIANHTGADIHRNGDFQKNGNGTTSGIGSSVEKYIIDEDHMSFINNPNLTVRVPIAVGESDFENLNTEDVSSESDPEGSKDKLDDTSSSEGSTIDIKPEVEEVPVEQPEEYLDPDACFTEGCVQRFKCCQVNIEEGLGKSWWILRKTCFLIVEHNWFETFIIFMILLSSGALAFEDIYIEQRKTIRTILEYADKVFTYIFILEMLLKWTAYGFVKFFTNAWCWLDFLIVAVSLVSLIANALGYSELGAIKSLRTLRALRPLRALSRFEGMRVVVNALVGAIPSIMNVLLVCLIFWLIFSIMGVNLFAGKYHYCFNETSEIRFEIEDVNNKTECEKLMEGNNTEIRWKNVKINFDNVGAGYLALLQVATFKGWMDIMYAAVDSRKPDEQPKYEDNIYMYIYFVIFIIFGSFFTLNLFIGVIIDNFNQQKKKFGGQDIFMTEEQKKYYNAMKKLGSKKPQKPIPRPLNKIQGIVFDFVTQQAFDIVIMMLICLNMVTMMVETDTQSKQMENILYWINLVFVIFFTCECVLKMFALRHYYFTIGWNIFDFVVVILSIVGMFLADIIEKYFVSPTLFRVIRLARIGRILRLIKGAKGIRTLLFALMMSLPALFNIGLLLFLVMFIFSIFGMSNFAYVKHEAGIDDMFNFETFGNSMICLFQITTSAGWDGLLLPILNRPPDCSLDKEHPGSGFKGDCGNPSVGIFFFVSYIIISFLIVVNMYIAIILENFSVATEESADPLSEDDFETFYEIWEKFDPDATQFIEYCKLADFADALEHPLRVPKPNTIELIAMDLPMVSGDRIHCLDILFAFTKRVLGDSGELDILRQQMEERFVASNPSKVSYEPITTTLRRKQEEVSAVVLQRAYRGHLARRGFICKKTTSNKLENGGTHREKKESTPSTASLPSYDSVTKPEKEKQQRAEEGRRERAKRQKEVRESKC

B1: FLAG-LRR recombinant protein (LRR domain of LRRC37B, amino acids 468-841) (domain or fragment)
chain: AAAEKTRAPHPDQVQTLHRSLTEVTGPPTKLESSQDSLVQSETAPEEQKASTSTNICELCTCGDETLSCVGLSPKQRLRQVPVPEPDTYNGIFTTLNFQGNYISYLDGNVWKAYSWTEKLILSENYLTELPKDSFEGLLYLQYLDLSCNKIRYIERQTFESLPFLQYINLGCNLITKLSLGTFQAWHGMQFLHNLILNRNPLTTVEDPYLFELPALKYLDMGTTHITLTTLKNILTMTVELEKLILPSHMACCLCQFKNSIEAVCKTVKLHCNTACLTNSIHCPEEASVGNPEGAFMKMLQARKQHMSTQLTIESEAPSDSSGINLSGFGGDQLEIQLTEQLRSLIPNEDVRKFMSHVIRTLKMECSETHVQGSCAKLSTG
With B1, the Kd (usually the constant that tells how readily two partners part at equilibrium) in assay [1] came out at 530 nM.

B2: F13ExonS-biotin synthetic peptide (peptide)
peptide: MAAAIASSLIRQKRQAREREKSNACKCVSSPSKGKTSCDKNKLNVFSRVKLFGSKKRRRRRPE
modifications: not fully specified (C-terminus)
As for B2, the Kd in assay [2] was found to be 1.1 ± 0.261 nM; in assay [3], 49.83 ± 0.261 nM; in assay [4], 1.18 ± 0.28 nM.

The values are drawn from paper PMC10754148 (Cell, 2023).
